Measured values as given in US20060019871A1, “Endothelial cell apoptosis induced by fibrinogen gamma chain C-terminal fragment” (The Regents of the University of California, priority 2004, published 2006).
Read-outs that look alike come from different tables or passages of the source.

How the values were obtained:
[1] = test system: γC-399tr-induced apoptosis; test: Blocking of γC-399tr-induced apoptosis by MAPK inhibitors (FIG. 6); format: cell-based
Method: 10 μM of inhibitor is the saturating concentration.
It was further observed that endothelial cell apoptosis induced by γC-399tr can be blocked by p38 MAP kinase inhibitor SB-203580 but not inhibitors of some other MAP kinases.

[2] = test system: DLD-1 human colon adenocarcinoma cells; test: Tumor growth of DLD-1 xenograft in SCID mice; format: in vivo; conditions: injections of recombinant γC-399tr in PBS
Method: Human breast adenocarcinoma BT20 cells are subcutaneously injected into 7-9-week-old male non-obese diabetes/severe combined immunodeficiency (NOD/SCID) mice. The animals are divided into 4 groups, each having 5 animals. Each animal receives 2×10^6 cells in the injection. The treatment groups, Groups 1-3, are injected daily intraperitoneally with recombinant γC. The control group, Group 4, receives injections of equal volumes of PBS each day. The dimensions of the tumors are measured and the tumor volumes are calculated. After two weeks of treatment, the animals are sacrificed and the tumors are excised, sectioned, and evaluated histologically. To examine the tumor vasculatures, the tumor sections are stained by CD31 anti-mouse monoclonal antibody (PharMingen, San Diego, Calif.). Tumor size and the extent of tumor vasculature are compared among all treatment and control groups.
Following the general procedure described in Example 2, DLD-1 human colon adenocarcinoma cells were injected into SCID mice. Subsequently, the treatment groups of mice received injections of recombinant γC-399tr in PBS, whereas the control group received PBS injections.

[3] = test system: MAP kinases Erk1 and 2; test: Activation of MAP kinases Erk1 and 2, western blotting in β3-CHO cells (FIG. 4); format: cell-based, Chinese hamster; conditions: soluble γC in the medium, 30 min
Method: FIG. 4. Fibrinogen γC-induced activation of MAP kinases Erk1 and 2. CHO cells expressing recombinant αvβ3 (β3-CHO cells) were incubated with soluble γC at indicated concentrations for 30 min and the levels of MAP kinases (Erk1 and 2) were determined by western blotting with anti-phosphorylated Erk 1 and 2.
It remains a possibility that γC acts as an antagonist and blocks signaling from other integrin ligands by competing for binding to integrins.

[4] = test system: BAE cells; test: MTS (CellTiter96) proliferation assay, BAE cells (FIG. 2); format: cell-based, bovine
Method: (§1) FIG. 2. […] The numbers of proliferating cells were determined using a tetrazolium compound MTS (CellTiter96® assay).

[5] = test system: BAE cells; test: Annexin V / propidium iodide binding, flow cytometry, apoptosis of BAE cells (FIG. 3); format: cell-based, bovine
Method: FIGS. 3A and 3B. […] BAE cells were treated with 10 μg/ml recombinant soluble γC or native fibrinogen for the indicated time. The binding of annexin V or propidium iodide (PI) to the treated BAE cells was measured in flow cytometry (FIG. 3A).

[6] = test system: β3-CHO cells; test: MTS (CellTiter96) proliferation assay, β3-CHO cells (FIG. 2); format: cell-based, Chinese hamster
Method: as §1

[7] = test system: Bovine Arterial Endothelial (BAE) cell; test: Growth arrest of BAE cells in culture (FIG. 1); format: cell-based
Method: FIG. 1. Fibrinogen γC-induced growth arrest of Bovine Arterial Endothelial (BAE) cell. […] Fragment D required much higher concentrations (100 μg/ml) to induce detectable apoptotic effects.

[8] = test system: CHO cells; test: MTS (CellTiter96) proliferation assay, CHO cells (FIG. 2); format: cell-based, Chinese hamster
Method: as §1

[9] = test system: calf pulmonary artery endothelial (CPAE) cells; test: CPAE proliferation / apoptosis, MTS and Phosphate assay (FIG. 5); format: cell-based
Method: FIG. 5. Inhibition of CPAE Proliferation induced by fibrinogen γC and γC-399tr. CPAE proliferation was measured by using a MTS and Phosphate assay. 10% serum-induced proliferation was inhibited by γC in a concentration-dependent fasion 48 hours passed after 1×10^5/ml. The γC-399tr is approximately 3 times more efficient in inducing apoptosis of CPAE cells.
A deletion mutant of γC that has 12 amino acids truncated from the C-terminal of γC, termed γC-399tr (having the amino acid sequence of 1-249 of SEQ ID NO:3), was recombinantly produced and purified.

[10] = test system: caspase-3 and caspase-7; test: Activation of caspases by γC in CPAE cells; format: cell-based, calf; conditions: protein expression and enzymatic activity

Molecule: C[S+]([O-])c1ccc(-c2nc(-c3ccncc3)c(-c3ccc(F)cc3)[nH]2)cc1 (stereo not drawn) [SB-203580]
- saturating concentration of inhibitor for blocking γC-399tr-induced apoptosis [1]: 10 µM
- blocking of γC-399tr-induced apoptosis ([1]; endothelial cell): blocks

B1: γC-399tr: Deletion mutant of γC with 12 amino acids truncated from the C-terminal; amino acid sequence 1-249 of SEQ ID NO:3 (protein, listed as Homo sapiens)
chain: KDCQDIANKGAKQSGLYFIKPLKANQQFLVYCEIDGSGNGWTVFQKRLDGSVDFKKNWIQYKEGFGHLSPTGTTEFWLGNEKIHLISTQSAIPYALRVELEDWNGRTSTADYAMFKVGPEADKYRLTYAYFAGGDAGDAFDGFDFGDDPSDKFFTSHNGMQFSTWDNDNDKFEGNCAEQDGSGWWMNKCHAGHLNGVYYQGGTYSKASTPNGYDNGIIWATWKTRWYSMKKTTMKIIPFNRLTIGEGQQ
modifications: C-terminal region of fibrinogen gamma chain, isoform gamma-A, residues 177-437
- tumor size versus PBS control group [2]: reduced tumor size

B2: γC: Fibrinogen γ-chain C-terminal domain, 30 Kd, about 250 amino acid residues, sequence as set forth in SEQ ID NO:3 (protein, listed as Homo sapiens)
chain: KDCQDIANKGAKQSGLYFIKPLKANQQFLVYCEIDGSGNGWTVFQKRLDGSVDFKKNWIQYKEGFGHLSPTGTTEFWLGNEKIHLISTQSAIPYALRVELEDWNGRTSTADYAMFKVGPEADKYRLTYAYFAGGDAGDAFDGFDFGDDPSDKFFTSHNGMQFSTWDNDNDKFEGNCAEQDGSGWWMNKCHAGHLNGVYYQGGTYSKASTPNGYDNGIIWATWKTRWYSMKKTTMKIIPFNRLTIGEGQQHHLGGAKQAGDV
modifications: C-terminal region of fibrinogen gamma chain, isoform gamma-A, residues 177-437
- concentration inducing MAP kinase activation [3]: less than 1 μg/ml
- level of γC effectively blocking proliferation of BAE cells [4]: below 1 μg/ml
- proliferation of BAE cells in the MTS assay [4]: blocked proliferation
- induction of apoptosis of BAE cells ([5]; 10 μg/ml, annexin V / PI binding): induced apoptosis
- time at which apoptosis of BAE cells was detectable ([5]; 10 μg/ml, annexin V / PI flow cytometry): 2 to 4 h
- time in which apoptosis of BAE cells was induced ([5]; annexin V binding assays): 2 to 4 h
- effect on proliferation of β3-CHO cells [6]: little or no effect
- effect on proliferation of β3-CHO cells ([6]; listed as γC domain): not
- proliferation of BAE cells ([7]; 12.5 μg/ml each in culture media, 1×10^4 cells per well, 48 hours): blocked proliferation
- concentration blocking proliferation of BAE cells ([7]; FIG. 1 as cited): less than 1 μg/ml
- effect on proliferation of CHO cells [8]: little or no effect
- effect on proliferation of CHO cells ([8]; listed as γC domain): not
- apoptosis in CPAE cells [9]: induced apoptosis
- 10% serum-induced CPAE proliferation ([9]; 48 hours, 1×10^5/ml): inhibited
- activation of caspase-3 and caspase-7 [10]: activation of caspase-3 and caspase-7
